Laboratory results reported in US20230104769A1 (MABWELL SHANGHAI BIOSCIENCE, published 2023).

Target: T1, recombinant human PD-1 protein (NCBI accession No.: NP_005009.2, 21aa-167aa) (human, UniProt Q15116 21-167)
T1 construct: range 21-167; also called recombinant human PD-1 extracellular domain protein; PD-1-ECD
Experiment: BLI Octet QKe, antibody on the sensor, single 100 nM PD-1
Method: Determination of the binding kinetics: the affinity of the antibody was determined with Octet QKe system from Fortebio using an assay of capturing biotin-labeled antibody with streptavidin. […] Both the binding and dissociating were conducted for 300 s.
The comparison of affinity between the variant antibodies and the parent antibody was performed using Octet QKe system supplied by Fortebio.

T1 sequence (Q15116 21-167 limits assumed, form in doubt): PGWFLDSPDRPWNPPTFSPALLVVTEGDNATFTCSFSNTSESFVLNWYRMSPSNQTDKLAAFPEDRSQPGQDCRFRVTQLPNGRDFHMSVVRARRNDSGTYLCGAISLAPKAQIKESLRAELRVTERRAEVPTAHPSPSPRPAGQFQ

| Kd [nM] | Binder |
| --- | --- |
| 61.2 | h317 variant antibody, heavy chain Y57T (antibody, V domains shown, Variant of h317) VH: EVQLVESGGGLVKPGGSLRLSCAASGFTFSSYDMSWVRQAPGKGLEWVATISGGGSTTYYPDSVKGRFTISRDNAKNSLYLQMNSLRAEDTAVYYCASPDSSGVAYWGQGTLVTVSS VL: DIVMTQSPLSLPVTPGEPASITCKASQDVETVVAWYLQKPGQSPRLLIYWASTRHTGVPDRFSGSGSGTDFTLKISRVEAEDVGVYYCQQYSRYPWTFGQGTKL |
| 294 | h317 variant antibody, heavy chain Y106T (antibody, V domains shown, Variant of h317; also called YI06T) VH: EVQLVESGGGLVKPGGSLRLSCAASGFTFSSYDMSWVRQAPGKGLEWVATISGGGSYTYYPDSVKGRFTISRDNAKNSLYLQMNSLRAEDTAVYYCASPDSSGVATWGQGTLVTVSS VL: DIVMTQSPLSLPVTPGEPASITCKASQDVETVVAWYLQKPGQSPRLLIYWASTRHTGVPDRFSGSGSGTDFTLKISRVEAEDVGVYYCQQYSRYPWTFGQGTKL |
| 172 | h317 variant antibody, light chain H55A (antibody, V domains shown, Variant of h317) VH: EVQLVESGGGLVKPGGSLRLSCAASGFTFSSYDMSWVRQAPGKGLEWVATISGGGSYTYYPDSVKGRFTISRDNAKNSLYLQMNSLRAEDTAVYYCASPDSSGVAYWGQGTLVTVSS VL: DIVMTQSPLSLPVTPGEPASITCKASQDVETVVAWYLQKPGQSPRLLIYWASTRATGVPDRFSGSGSGTDFTLKISRVEAEDVGVYYCQQYSRYPWTFGQGTKL |
| 4.17 | h317 variant antibody, light chain K24R and S92N (antibody, V domains shown, Variant of h317; also called 24R(CDR1) 92N(CDR3)) VH: EVQLVESGGGLVKPGGSLRLSCAASGFTFSSYDMSWVRQAPGKGLEWVATISGGGSYTYYPDSVKGRFTISRDNAKNSLYLQMNSLRAEDTAVYYCASPDSSGVAYWGQGTLVTVSS VL: DIVMTQSPLSLPVTPGEPASITCRASQDVETVVAWYLQKPGQSPRLLIYWASTRHTGVPDRFSGSGSGTDFTLKISRVEAEDVGVYYCQQYNRYPWTFGQGTKL |
| 36.4 | h317 variant antibody, light chain R93N (antibody, V domains shown, Variant of h317) VH: EVQLVESGGGLVKPGGSLRLSCAASGFTFSSYDMSWVRQAPGKGLEWVATISGGGSYTYYPDSVKGRFTISRDNAKNSLYLQMNSLRAEDTAVYYCASPDSSGVAYWGQGTLVTVSS VL: DIVMTQSPLSLPVTPGEPASITCKASQDVETVVAWYLQKPGQSPRLLIYWASTRHTGVPDRFSGSGSGTDFTLKISRVEAEDVGVYYCQQYSNYPWTFGQGTKL |
| 2.91 | h317 variant antibody, light chain K24R, T56S and S92N (antibody, V domains shown, Variant of h317; also called 24R(CDR1) 56S(CDR2) 92N(CDR3)) VH: EVQLVESGGGLVKPGGSLRLSCAASGFTFSSYDMSWVRQAPGKGLEWVATISGGGSYTYYPDSVKGRFTISRDNAKNSLYLQMNSLRAEDTAVYYCASPDSSGVAYWGQGTLVTVSS VL: DIVMTQSPLSLPVTPGEPASITCRASQDVETVVAWYLQKPGQSPRLLIYWASTRHSGVPDRFSGSGSGTDFTLKISRVEAEDVGVYYCQQYNRYPWTFGQGTKL |
| 5.32 | h317 variant antibody, light chain K24R and Y94F (antibody, V domains shown, Variant of h317; also called 24R(CDR1) 94F(CDR3)) VH: EVQLVESGGGLVKPGGSLRLSCAASGFTFSSYDMSWVRQAPGKGLEWVATISGGGSYTYYPDSVKGRFTISRDNAKNSLYLQMNSLRAEDTAVYYCASPDSSGVAYWGQGTLVTVSS VL: DIVMTQSPLSLPVTPGEPASITCRASQDVETVVAWYLQKPGQSPRLLIYWASTRHTGVPDRFSGSGSGTDFTLKISRVEAEDVGVYYCQQYSRFPWTFGQGTKL |
| 3.29 | h317 variant antibody, heavy chain Y59A (antibody, V domains shown, Variant of h317) VH: EVQLVESGGGLVKPGGSLRLSCAASGFTFSSYDMSWVRQAPGKGLEWVATISGGGSYTAYPDSVKGRFTISRDNAKNSLYLQMNSLRAEDTAVYYCASPDSSGVAYWGQGTLVTVSS VL: DIVMTQSPLSLPVTPGEPASITCKASQDVETVVAWYLQKPGQSPRLLIYWASTRHTGVPDRFSGSGSGTDFTLKISRVEAEDVGVYYCQQYSRYPWTFGQGTKL |
| 1.02 | h317 variant antibody, light chain K24R (antibody, V domains shown, Variant of h317) VH: EVQLVESGGGLVKPGGSLRLSCAASGFTFSSYDMSWVRQAPGKGLEWVATISGGGSYTYYPDSVKGRFTISRDNAKNSLYLQMNSLRAEDTAVYYCASPDSSGVAYWGQGTLVTVSS VL: DIVMTQSPLSLPVTPGEPASITCRASQDVETVVAWYLQKPGQSPRLLIYWASTRHTGVPDRFSGSGSGTDFTLKISRVEAEDVGVYYCQQYSRYPWTFGQGTKL |
| 14.2 | h317 variant antibody, light chain E30S (antibody, V domains shown, Variant of h317) VH: EVQLVESGGGLVKPGGSLRLSCAASGFTFSSYDMSWVRQAPGKGLEWVATISGGGSYTYYPDSVKGRFTISRDNAKNSLYLQMNSLRAEDTAVYYCASPDSSGVAYWGQGTLVTVSS VL: DIVMTQSPLSLPVTPGEPASITCKASQDVSTVVAWYLQKPGQSPRLLIYWASTRHTGVPDRFSGSGSGTDFTLKISRVEAEDVGVYYCQQYSRYPWTFGQGTKL |
| 2.88 | h317 variant antibody, light chain K24R, T56S and S92N with heavy chain G54S and Y59A (antibody, V domains shown, Variant of h317; also called L- 24R(CDR1) 56S(CDR2) 92N(CDR3); H- 54S(CDR2) 59A(CDR2)) VH: EVQLVESGGGLVKPGGSLRLSCAASGFTFSSYDMSWVRQAPGKGLEWVATISGSGSYTAYPDSVKGRFTISRDNAKNSLYLQMNSLRAEDTAVYYCASPDSSGVAYWGQGTLVTVSS VL: DIVMTQSPLSLPVTPGEPASITCRASQDVETVVAWYLQKPGQSPRLLIYWASTRHSGVPDRFSGSGSGTDFTLKISRVEAEDVGVYYCQQYNRYPWTFGQGTKL |
| 7.94 | h317 variant antibody, light chain R93S (antibody, V domains shown, Variant of h317) VH: EVQLVESGGGLVKPGGSLRLSCAASGFTFSSYDMSWVRQAPGKGLEWVATISGGGSYTYYPDSVKGRFTISRDNAKNSLYLQMNSLRAEDTAVYYCASPDSSGVAYWGQGTLVTVSS VL: DIVMTQSPLSLPVTPGEPASITCKASQDVETVVAWYLQKPGQSPRLLIYWASTRHTGVPDRFSGSGSGTDFTLKISRVEAEDVGVYYCQQYSSYPWTFGQGTKL |
| 3.38 | h317 variant antibody, light chain K24R, T56S and S92N with heavy chain D33S and G54S (antibody, V domains shown, Variant of h317; also called L- 24R(CDR1) 56S(CDR2) 92N(CDR3); H- 33S(CDR1) 54S(CDR2)) VH: EVQLVESGGGLVKPGGSLRLSCAASGFTFSSYSMSWVRQAPGKGLEWVATISGSGSYTYYPDSVKGRFTISRDNAKNSLYLQMNSLRAEDTAVYYCASPDSSGVAYWGQGTLVTVSS VL: DIVMTQSPLSLPVTPGEPASITCRASQDVETVVAWYLQKPGQSPRLLIYWASTRHSGVPDRFSGSGSGTDFTLKISRVEAEDVGVYYCQQYNRYPWTFGQGTKL |
| 14.2 | h317 variant antibody, light chain H55Q (antibody, V domains shown, Variant of h317) VH: EVQLVESGGGLVKPGGSLRLSCAASGFTFSSYDMSWVRQAPGKGLEWVATISGGGSYTYYPDSVKGRFTISRDNAKNSLYLQMNSLRAEDTAVYYCASPDSSGVAYWGQGTLVTVSS VL: DIVMTQSPLSLPVTPGEPASITCKASQDVETVVAWYLQKPGQSPRLLIYWASTRQTGVPDRFSGSGSGTDFTLKISRVEAEDVGVYYCQQYSRYPWTFGQGTKL |
| 18.9 | h317 variant antibody, heavy chain Y59T (antibody, V domains shown, Variant of h317) VH: EVQLVESGGGLVKPGGSLRLSCAASGFTFSSYDMSWVRQAPGKGLEWVATISGGGSYTTYPDSVKGRFTISRDNAKNSLYLQMNSLRAEDTAVYYCASPDSSGVAYWGQGTLVTVSS VL: DIVMTQSPLSLPVTPGEPASITCKASQDVETVVAWYLQKPGQSPRLLIYWASTRHTGVPDRFSGSGSGTDFTLKISRVEAEDVGVYYCQQYSRYPWTFGQGTKL |
| 3.23 | h317 variant antibody, light chain K24R and T56S (antibody, V domains shown, Variant of h317; also called 24R(CDR1) 56(2)) VH: EVQLVESGGGLVKPGGSLRLSCAASGFTFSSYDMSWVRQAPGKGLEWVATISGGGSYTYYPDSVKGRFTISRDNAKNSLYLQMNSLRAEDTAVYYCASPDSSGVAYWGQGTLVTVSS VL: DIVMTQSPLSLPVTPGEPASITCRASQDVETVVAWYLQKPGQSPRLLIYWASTRHSGVPDRFSGSGSGTDFTLKISRVEAEDVGVYYCQQYSRYPWTFGQGTKL |
